# Measured values: PMC6386767, “Characterization of recombinant fructose-1,6-bisphosphatase gene mutations: evidence of inhibition/activation of FBPase protein by gene mutation” (Bioscience Reports, 2019)
# Residue numbers refer to the chain shown, from its start. Names may count otherwise.
# T1: pig kidney FBPase K112A (Sus scrofa, UniProt P00636, K113A)
# T1 construct: His6 (C); made in house; host or cells: Escherichia coli BL21 (DE3)
# T1 sequence (P00636 1-338 K113A): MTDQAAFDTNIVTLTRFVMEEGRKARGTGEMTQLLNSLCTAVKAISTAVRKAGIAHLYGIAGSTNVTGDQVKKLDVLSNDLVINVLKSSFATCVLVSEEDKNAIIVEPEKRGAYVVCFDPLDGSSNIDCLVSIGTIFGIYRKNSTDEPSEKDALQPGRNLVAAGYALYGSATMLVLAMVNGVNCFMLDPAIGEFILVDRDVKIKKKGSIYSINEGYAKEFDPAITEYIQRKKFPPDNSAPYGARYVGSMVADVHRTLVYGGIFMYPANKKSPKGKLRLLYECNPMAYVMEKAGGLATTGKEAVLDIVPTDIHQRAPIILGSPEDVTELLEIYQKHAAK
# T2: pig kidney FBPase Y164A (Sus scrofa, UniProt P00636, Y165A)
# T2 construct: His6 (C); made in house; host or cells: Escherichia coli BL21 (DE3)
# T2 sequence (P00636 1-338 Y165A): T1 sequence (P00636 1-338 K113A) with A113K, Y165A
# T3: pig kidney FBPase Y113A (Sus scrofa, UniProt P00636, Y114A)
# T3 construct: His6 (C); made in house; host or cells: Escherichia coli BL21 (DE3)
# T3 sequence (P00636 1-338 Y114A): T1 sequence (P00636 1-338 K113A) with A113K, Y114A
# T4: pig kidney FBPase M177A (Sus scrofa, UniProt P00636, M178A)
# T4 construct: His6 (C); made in house; host or cells: Escherichia coli BL21 (DE3)
# T4 sequence (P00636 1-338 M178A): T1 sequence (P00636 1-338 K113A) with A113K, M178A
# T5: pig kidney FBPase WT (Sus scrofa, UniProt P00636)
# T5 construct: His6 (C); made in house; host or cells: Escherichia coli BL21 (DE3)
# T5 sequence (P00636 1-338): T1 sequence (P00636 1-338 K113A) with A113K
# T6: pig kidney FBPase L73A (Sus scrofa, UniProt P00636, L74A)
# T6 construct: His6 (C); made in house; host or cells: Escherichia coli BL21 (DE3)
# T6 sequence (P00636 1-338 L74A): T1 sequence (P00636 1-338 K113A) with L74A, A113K
# T7: pig kidney FBPase M248D (Sus scrofa, UniProt P00636, M249D)
# T7 construct: His6 (C); made in house; host or cells: Escherichia coli BL21 (DE3)
# T7 sequence (P00636 1-338 M249D): T1 sequence (P00636 1-338 K113A) with A113K, M249D
# T8: pig kidney FBPase L56A (Sus scrofa, UniProt P00636, L57A)
# T8 construct: His6 (C); made in house; host or cells: Escherichia coli BL21 (DE3)
# T8 sequence (P00636 1-338 L57A): T1 sequence (P00636 1-338 K113A) with L57A, A113K
# B1: K112A: pig kidney FBPase mutant, lysine to alanine, AMP-binding site (protein, UniProt P00636 2-338, looked up, variant K112A)
# Fructose-1,6-bisphosphatase 1: TDQAAFDTNIVTLTRFVMEEGRKARGTGEMTQLLNSLCTAVKAISTAVRKAGIAHLYGIAGSTNVTGDQVKKLDVLSNDLVINVLKSSFATCVLVSEEDKNAIIVEPEKRGAYVVCFDPLDGSSNIDCLVSIGTIFGIYRKNSTDEPSEKDALQPGRNLVAAGYALYGSATMLVLAMVNGVNCFMLDPAIGEFILVDRDVKIKKKGSIYSINEGYAKEFDPAITEYIQRKKFPPDNSAPYGARYVGSMVADVHRTLVYGGIFMYPANKKSPKGKLRLLYECNPMAYVMEKAGGLATTGKEAVLDIVPTDIHQRAPIILGSPEDVTELLEIYQKHAAK
# B2: Y164A: pig kidney FBPase mutant, tyrosine to alanine, interfacial (protein, UniProt P00636 2-338, looked up, variant Y164A)
# Fructose-1,6-bisphosphatase 1: B1 Fructose-1,6-bisphosphatase 1 with A112K, Y164A
# B3: Y113A: pig kidney FBPase mutant, tyrosine to alanine, AMP-binding site (protein, UniProt P00636 2-338, looked up, variant Y113A)
# Fructose-1,6-bisphosphatase 1: B1 Fructose-1,6-bisphosphatase 1 with A112K, Y113A
# B4: M177A: pig kidney FBPase mutant, methionine to alanine, interfacial (protein, UniProt P00636 2-338, looked up, variant M177A)
# Fructose-1,6-bisphosphatase 1: B1 Fructose-1,6-bisphosphatase 1 with A112K, M177A
# B5: WT: recombinant wild-type pig kidney FBPase enzyme (protein, UniProt P00636 2-338, looked up)
# Fructose-1,6-bisphosphatase 1: B1 Fructose-1,6-bisphosphatase 1 with A112K
# B6: L73A: pig kidney FBPase mutant Leu^73 to alanine, near PFE tetramer interface site (protein, UniProt P00636 2-338, looked up, variant L73A)
# Fructose-1,6-bisphosphatase 1: B1 Fructose-1,6-bisphosphatase 1 with L73A, A112K
# B7: M248D: pig kidney FBPase active site mutant Met^248 to aspartic acid (protein, UniProt P00636 2-338, looked up, variant M248D)
# Fructose-1,6-bisphosphatase 1: B1 Fructose-1,6-bisphosphatase 1 with A112K, M248D
# B8: L56A: pig kidney FBPase mutant Leu^56 to alanine, near PFE tetramer interface site (protein, UniProt P00636 2-338, looked up, variant L56A)
# Fructose-1,6-bisphosphatase 1: B1 Fructose-1,6-bisphosphatase 1 with L56A, A112K
# Assays:
# Type in all cases: binding
# [1] = biological target: T1, pig kidney FBPase K112A; test: Differential scanning fluorimetry, K112A mutant; conditions: no ligand
# Description: (§1) Differential scanning fluorimetry (DSF) assays were designed and implemented to run on WT and each mutant for the purpose of determining relative stabilities by melting point, and to detect structural changes in the enzymes upon ligand binding. Thermal shift assays were performed with a Light Cycler 96 System Real-Time PCR machine (Roche) using Sypro-Orange dye (Invitrogen) and thermal ramping (0.25°C per min between 20 and 85°C). […] Data were processed using the Boltzmann equation to generate sigmoidal denaturation curves, and average Tm/ΔTm values were calculated as previously described using GraphPad Prism software package.
# [2] = biological target: T2, pig kidney FBPase Y164A; test: Differential scanning fluorimetry, Y164A mutant; conditions: enzyme Y164A 5 µM, no ligand
# Description: as §1
# [3] = biological target: T3, pig kidney FBPase Y113A; test: Differential scanning fluorimetry, Y113A mutant; conditions: no ligand
# Description: as §1
# [4] = biological target: T4, pig kidney FBPase M177A; test: Differential scanning fluorimetry, M177A mutant; conditions: enzyme M177A 5 µM, no ligand
# Description: as §1
# [5] = biological target: T5, pig kidney FBPase WT; test: Differential scanning fluorimetry, WT enzyme; conditions: enzyme WT 5 µM, no ligand
# Description: as §1
# [6] = biological target: T6, pig kidney FBPase L73A; test: Differential scanning fluorimetry, L73A mutant; conditions: enzyme L73A 5 µM, no ligand
# Description: as §1
# [7] = biological target: T7, pig kidney FBPase M248D; test: Differential scanning fluorimetry, M248D mutant; conditions: enzyme M248D 5 µM, no ligand
# Description: as §1
# [8] = biological target: T8, pig kidney FBPase L56A; test: Differential scanning fluorimetry, L56A mutant; conditions: enzyme L56A 5 µM, no ligand
# Description: as §1
molecule,measurement,setting,value
B1,"melting point, No Ligand",[1]; enzyme K112A 5 µM,51.0 (± 2.50) °C
same,decrease in melting temperature compared with WT,[1]; enzyme K112A,approximately 6 °
B2,"melting point, No Ligand",[2],55.4 (± 2.25) °C
B3,"melting point, No Ligand",[3]; enzyme Y113A 5 µM,50.0 (± 2.25) °C
same,decrease in melting temperature compared with WT,[3]; enzyme Y113A,approximately 6 °
B4,"melting point, No Ligand",[4],54.2 (± 1.75) °C
B5,"melting point, No Ligand",[5],56.0 (± 2.75) °C
B6,"melting point, No Ligand",[6],55.8 (± 2.50) °C
B7,"melting point, No Ligand",[7],62.0 (± 1.25) °C
B8,"melting point, No Ligand",[8],56.0 (± 3.00) °C
